We go through 125 sequences from the supplement of paper PMC9112550, “Optimization of the antimicrobial peptide Bac7 by deep mutational scanning” (BMC Biology, 2022).

For this series, the system named is Escherichia coli TOP10. The series is described as follows: shrunken log2 fold change of peptide-encoding DNA abundance (4.5 h post-induction vs induction); higher = less antimicrobial activity (less host growth inhibition). The note with it: time post-induction: 4.5 h; library: site-saturation at positions 5, 18, 19, 20.
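Further: peptides expressed intracellularly from a pBAD plasmid library in pooled LB shake-flask culture, induced with 0.3% L-arabinose, DNA abundance read by NGS, three biological replicates, DESeq2 with apeglm shrinkage.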

As for RRIRVRPPRLPRPRPRPTGLPRP, the “shrunken log2 fold change” value was found to be 0.000711.

Take RRIRARPPRLPRPRPRPRSLPRP: the “shrunken log2 fold change” value stood at 0.0678.

RRIRWRPPRLPRPRPRPCIRPRP: the “shrunken log2 fold change” value was -0.147.

In the case of RRIRMRPPRLPRPRPRPSDLPRP, the “shrunken log2 fold change” value is -0.035.

Regarding RRIRTRPPRLPRPRPRPVLMPRP, the “shrunken log2 fold change” value was 0.187.

Consider RRIRERPPRLPRPRPRPFVYPRP, for which the “shrunken log2 fold change” value is -0.123.

For RRIRQRPPRLPRPRPRPLWIPRP, the “shrunken log2 fold change” value is -0.0179.

Regarding RRIRFRPPRLPRPRPRPWPKPRP, the “shrunken log2 fold change” value worked out at 0.125.

With RRIRHRPPRLPRPRPRPGWMPRP, the “shrunken log2 fold change” value was 0.0172.

Consider RRIRARPPRLPRPRPRPYILPRP, for which the “shrunken log2 fold change” value was -0.983.

RRIRGRPPRLPRPRPRPETLPRP: the “shrunken log2 fold change” value is 1.37.

For RRIRTRPPRLPRPRPRPLNQPRP, the “shrunken log2 fold change” value was -0.417.

With RRIRGRPPRLPRPRPRPVNCPRP, the “shrunken log2 fold change” value was 0.139.

With RRIRSRPPRLPRPRPRPPAHPRP, the “shrunken log2 fold change” value amounted to 0.303.

Consider RRIRYRPPRLPRPRPRPAKAPRP, for which the “shrunken log2 fold change” value amounted to 0.0797.

RRIRHRPPRLPRPRPRPHHYPRP: the “shrunken log2 fold change” value is -0.533.

RRIRCRPPRLPRPRPRPFCKPRP: the “shrunken log2 fold change” value is -0.0692.

Take RRIRYRPPRLPRPRPRPPNLPRP: the “shrunken log2 fold change” value is -0.248.

Turning to RRIRERPPRLPRPRPRPPLCPRP, the “shrunken log2 fold change” value turned out to be 0.124.

In the case of RRIRNRPPRLPRPRPRPVCRPRP, the “shrunken log2 fold change” value was found to be 0.0204.

As to RRIRDRPPRLPRPRPRPHFSPRP, the “shrunken log2 fold change” value was -0.0977.

As to RRIRVRPPRLPRPRPRPAPCPRP, the “shrunken log2 fold change” value was 0.168.

Regarding RRIRPRPPRLPRPRPRPHLEPRP, the “shrunken log2 fold change” value is -0.122.

In the case of RRIRPRPPRLPRPRPRPVNSPRP, the “shrunken log2 fold change” value is -0.196.

As to RRIRFRPPRLPRPRPRPSSHPRP, the “shrunken log2 fold change” value is -0.682.

Consider RRIRMRPPRLPRPRPRPPMPPRP, for which the “shrunken log2 fold change” value came out at 0.703.

For RRIRYRPPRLPRPRPRPKRIPRP, the “shrunken log2 fold change” value is -0.0123.

On to RRIRFRPPRLPRPRPRPNYRPRP, for which the “shrunken log2 fold change” value stood at 0.055.

For RRIRSRPPRLPRPRPRPTNNPRP, the “shrunken log2 fold change” value is -0.455.

For the sequence RRIRARPPRLPRPRPRPYLKPRP, the “shrunken log2 fold change” value is -0.352.

RRIRIRPPRLPRPRPRPFHYPRP: the “shrunken log2 fold change” value turned out to be 0.0334.

As to RRIRPRPPRLPRPRPRPVRSPRP, the “shrunken log2 fold change” value came out at 0.371.

For the sequence RRIRWRPPRLPRPRPRPVCSPRP, the “shrunken log2 fold change” value was 0.0102.

In the case of RRIRARPPRLPRPRPRPSMGPRP, the “shrunken log2 fold change” value is -0.0314.

Consider RRIRYRPPRLPRPRPRPLEEPRP, for which the “shrunken log2 fold change” value was -0.0801.

Regarding RRIRFRPPRLPRPRPRPGQWPRP, the “shrunken log2 fold change” value is -0.00218.

As for RRIRMRPPRLPRPRPRPEYAPRP, the “shrunken log2 fold change” value was 0.0325.

As to RRIRNRPPRLPRPRPRPTQRPRP, the “shrunken log2 fold change” value was 0.582.

For the sequence RRIRLRPPRLPRPRPRPEGYPRP, the “shrunken log2 fold change” value amounted to 0.104.

In the case of RRIRMRPPRLPRPRPRPNNHPRP, the “shrunken log2 fold change” value was -0.178.

As for RRIRIRPPRLPRPRPRPGFWPRP, the “shrunken log2 fold change” value was found to be 0.0561.

Turning to RRIRSRPPRLPRPRPRPPQKPRP, the “shrunken log2 fold change” value is 0.463.

Regarding RRIRNRPPRLPRPRPRPVSFPRP, the “shrunken log2 fold change” value stood at 0.0749.

For RRIRDRPPRLPRPRPRPVAFPRP, the “shrunken log2 fold change” value is 0.589.

Consider RRIRLRPPRLPRPRPRPLVIPRP, for which the “shrunken log2 fold change” value was -0.33.

Regarding RRIRARPPRLPRPRPRPQIAPRP, the “shrunken log2 fold change” value was 0.499.

For RRIRPRPPRLPRPRPRPDSIPRP, the “shrunken log2 fold change” value was -0.598.

RRIRPRPPRLPRPRPRPGKGPRP: the “shrunken log2 fold change” value worked out at 0.0267.

As for RRIRVRPPRLPRPRPRPIQIPRP, the “shrunken log2 fold change” value was -1.33.

As for RRIRWRPPRLPRPRPRPTTPPRP, the “shrunken log2 fold change” value was 0.642.

As to RRIRPRPPRLPRPRPRPHNSPRP, the “shrunken log2 fold change” value is -0.454.

For RRIRARPPRLPRPRPRPMPIPRP, the “shrunken log2 fold change” value amounted to 0.708.

Consider RRIRGRPPRLPRPRPRPDTIPRP, for which the “shrunken log2 fold change” value was 0.0799.

Take RRIRWRPPRLPRPRPRPCHYPRP: the “shrunken log2 fold change” value is -0.0893.

As for RRIRMRPPRLPRPRPRPKSSPRP, the “shrunken log2 fold change” value came to 0.763.

Take RRIRVRPPRLPRPRPRPDETPRP: the “shrunken log2 fold change” value came to 0.126.

Take RRIRKRPPRLPRPRPRPKHEPRP: the “shrunken log2 fold change” value was found to be 0.134.

For RRIRIRPPRLPRPRPRPCDFPRP, the “shrunken log2 fold change” value was -0.834.

On to RRIRQRPPRLPRPRPRPSPPPRP, for which the “shrunken log2 fold change” value is 0.169.

Regarding RRIRARPPRLPRPRPRPDGCPRP, the “shrunken log2 fold change” value came to 0.239.

Turning to RRIRVRPPRLPRPRPRPHHFPRP, the “shrunken log2 fold change” value is -0.114.

In the case of RRIRKRPPRLPRPRPRPRKGPRP, the “shrunken log2 fold change” value is -0.0408.

RRIRNRPPRLPRPRPRPLTWPRP: the “shrunken log2 fold change” value was -0.182.

Consider RRIRGRPPRLPRPRPRPTFRPRP, for which the “shrunken log2 fold change” value was -0.135.

As for RRIRPRPPRLPRPRPRPHPHPRP, the “shrunken log2 fold change” value was 0.0281.

On to RRIRIRPPRLPRPRPRPQWRPRP, for which the “shrunken log2 fold change” value is -0.191.

Consider RRIRRRPPRLPRPRPRPYHWPRP, for which the “shrunken log2 fold change” value is -0.48.

As to RRIRDRPPRLPRPRPRPCWLPRP, the “shrunken log2 fold change” value was 0.127.

Take RRIRDRPPRLPRPRPRPFYGPRP: the “shrunken log2 fold change” value was -0.108.

Consider RRIRSRPPRLPRPRPRPNDAPRP, for which the “shrunken log2 fold change” value was found to be 0.0331.

Consider RRIRIRPPRLPRPRPRPSSGPRP, for which the “shrunken log2 fold change” value is -0.219.

As to RRIRLRPPRLPRPRPRPTEDPRP, the “shrunken log2 fold change” value was -0.0182.

For RRIRERPPRLPRPRPRPKDRPRP, the “shrunken log2 fold change” value was -0.094.

As to RRIRPRPPRLPRPRPRPDNKPRP, the “shrunken log2 fold change” value is -0.778.

Take RRIRMRPPRLPRPRPRPNDMPRP: the “shrunken log2 fold change” value is -0.204.

Consider RRIRFRPPRLPRPRPRPVTIPRP, for which the “shrunken log2 fold change” value is -0.118.

For RRIRMRPPRLPRPRPRPQSMPRP, the “shrunken log2 fold change” value was determined as 0.143.

Take RRIRIRPPRLPRPRPRPELWPRP: the “shrunken log2 fold change” value came to 0.243.

For RRIRKRPPRLPRPRPRPNYVPRP, the “shrunken log2 fold change” value is -0.087.

With RRIRYRPPRLPRPRPRPVSTPRP, the “shrunken log2 fold change” value was -0.511.

As to RRIRWRPPRLPRPRPRPKLMPRP, the “shrunken log2 fold change” value was 0.31.

For RRIRGRPPRLPRPRPRPTMLPRP, the “shrunken log2 fold change” value amounted to 0.52.

Consider RRIRVRPPRLPRPRPRPWVSPRP, for which the “shrunken log2 fold change” value was -0.278.

RRIRPRPPRLPRPRPRPPLGPRP: the “shrunken log2 fold change” value was 0.585.

In the case of RRIRGRPPRLPRPRPRPPYDPRP, the “shrunken log2 fold change” value amounted to 0.0844.

As for RRIRKRPPRLPRPRPRPEVEPRP, the “shrunken log2 fold change” value came out at 2.8.

Turning to RRIRARPPRLPRPRPRPNNCPRP, the “shrunken log2 fold change” value is -0.466.

For RRIRWRPPRLPRPRPRPPQCPRP, the “shrunken log2 fold change” value is 0.292.

On to RRIRTRPPRLPRPRPRPDCQPRP, for which the “shrunken log2 fold change” value was -0.107.

With RRIRDRPPRLPRPRPRPREGPRP, the “shrunken log2 fold change” value is 1.01.

Take RRIRCRPPRLPRPRPRPFVQPRP: the “shrunken log2 fold change” value was -0.86.

Turning to RRIRRRPPRLPRPRPRPHPNPRP, the “shrunken log2 fold change” value was found to be 0.246.

RRIRRRPPRLPRPRPRPVWLPRP: the “shrunken log2 fold change” value is 0.175.

As for RRIRLRPPRLPRPRPRPTGQPRP, the “shrunken log2 fold change” value came to 0.107.

In the case of RRIRMRPPRLPRPRPRPDHMPRP, the “shrunken log2 fold change” value came out at 0.0296.

Regarding RRIRMRPPRLPRPRPRPAWQPRP, the “shrunken log2 fold change” value turned out to be 0.197.

In the case of RRIRNRPPRLPRPRPRPGMKPRP, the “shrunken log2 fold change” value is -0.272.

RRIRGRPPRLPRPRPRPLGDPRP: the “shrunken log2 fold change” value worked out at 0.624.

In the case of RRIRDRPPRLPRPRPRPLTVPRP, the “shrunken log2 fold change” value is -0.102.

Consider RRIRIRPPRLPRPRPRPCMLPRP, for which the “shrunken log2 fold change” value is -0.61.

On to RRIRRRPPRLPRPRPRPNMFPRP, for which the “shrunken log2 fold change” value was -0.047.

As to RRIRCRPPRLPRPRPRPPKMPRP, the “shrunken log2 fold change” value worked out at 0.222.

For the sequence RRIRWRPPRLPRPRPRPMIVPRP, the “shrunken log2 fold change” value was found to be 2.28.

For the sequence RRIRVRPPRLPRPRPRPDVSPRP, the “shrunken log2 fold change” value was -0.0827.

Turning to RRIRGRPPRLPRPRPRPAQGPRP, the “shrunken log2 fold change” value amounted to 0.313.

On to RRIRFRPPRLPRPRPRPVMMPRP, for which the “shrunken log2 fold change” value was -0.43.

As for RRIRLRPPRLPRPRPRPQAIPRP, the “shrunken log2 fold change” value is -0.152.

In the case of RRIRFRPPRLPRPRPRPSYSPRP, the “shrunken log2 fold change” value is -0.903.

With RRIRFRPPRLPRPRPRPFGLPRP, the “shrunken log2 fold change” value was -0.635.

In the case of RRIRCRPPRLPRPRPRPYKDPRP, the “shrunken log2 fold change” value was -0.492.

Consider RRIRRRPPRLPRPRPRPICGPRP, for which the “shrunken log2 fold change” value is -0.0231.

For RRIRNRPPRLPRPRPRPGRAPRP, the “shrunken log2 fold change” value is 0.177.

As to RRIRGRPPRLPRPRPRPPFAPRP, the “shrunken log2 fold change” value was 1.91.

Consider RRIRGRPPRLPRPRPRPWTKPRP, for which the “shrunken log2 fold change” value came out at 0.0647.

As for RRIRQRPPRLPRPRPRPLPQPRP, the “shrunken log2 fold change” value worked out at 0.337.

Consider RRIRRRPPRLPRPRPRPGSCPRP, for which the “shrunken log2 fold change” value came out at 0.152.

In the case of RRIRTRPPRLPRPRPRPPDGPRP, the “shrunken log2 fold change” value was -0.0813.

As to RRIRHRPPRLPRPRPRPTIQPRP, the “shrunken log2 fold change” value is -0.169.

For the sequence RRIRVRPPRLPRPRPRPYGMPRP, the “shrunken log2 fold change” value is -0.0584.

For RRIRQRPPRLPRPRPRPNDVPRP, the “shrunken log2 fold change” value was determined as 0.00724.

Consider RRIRARPPRLPRPRPRPKDYPRP, for which the “shrunken log2 fold change” value is -0.248.

Regarding RRIRQRPPRLPRPRPRPIDGPRP, the “shrunken log2 fold change” value was found to be 0.0784.

In the case of RRIRVRPPRLPRPRPRPDKDPRP, the “shrunken log2 fold change” value is -0.337.

For the sequence RRIRDRPPRLPRPRPRPQMEPRP, the “shrunken log2 fold change” value came out at 0.00785.

Turning to RRIRHRPPRLPRPRPRPIQVPRP, the “shrunken log2 fold change” value worked out at 0.000744.
